Source: PMC3252255, “Heterologous overexpression of Glomerella cingulata FAD-dependent glucose dehydrogenase in Escherichia coli and Pichia pastoris” (Microbial Cell Factories, 2011)

Assays:
[1] = target: T1, recGcGDH (recombinant Glomerella cingulata FAD-dependent glucose dehydrogenase) (Colletotrichum gloeosporioides, UniProt G8E4B5); assay: UV/Vis absorption spectrum of purified enzyme, oxidized and glucose-reduced; assay type: binding; details: 50 mM citrate pH 5.5, room temperature; FAD bound as purified
T1 construct: gene gdh; native stop codon in primer, no tag; glycosylated, 88-131 kDa on SDS-PAGE, 67 kDa deglycosylated
T1 sequence (G8E4B5 17-600): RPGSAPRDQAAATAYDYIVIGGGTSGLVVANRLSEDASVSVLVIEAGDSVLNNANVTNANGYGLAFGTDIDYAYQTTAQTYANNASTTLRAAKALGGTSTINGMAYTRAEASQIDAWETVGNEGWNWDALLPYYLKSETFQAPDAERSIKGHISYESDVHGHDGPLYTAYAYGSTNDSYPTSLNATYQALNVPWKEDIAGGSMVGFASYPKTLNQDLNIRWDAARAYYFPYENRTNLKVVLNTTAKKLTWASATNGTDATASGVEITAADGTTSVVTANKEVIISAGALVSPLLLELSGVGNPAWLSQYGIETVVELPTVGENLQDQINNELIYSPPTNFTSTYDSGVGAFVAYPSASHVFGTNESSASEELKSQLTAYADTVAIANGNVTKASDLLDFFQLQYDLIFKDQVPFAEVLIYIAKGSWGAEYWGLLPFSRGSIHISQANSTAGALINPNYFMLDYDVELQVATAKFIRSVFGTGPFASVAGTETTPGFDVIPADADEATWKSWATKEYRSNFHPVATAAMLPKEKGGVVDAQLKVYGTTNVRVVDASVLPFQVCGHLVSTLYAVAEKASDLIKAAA

[2] = substrate: OC[C@H]1OC(O)[C@H](O)[C@@H](O)[C@@H]1O; assay: steady-state kinetics, spectrophotometric ferrocenium reduction; assay type: biochemical, Colletotrichum gloeosporioides; details: pH 5.5, 30°C, ferrocenium hexafluorophosphate as electron acceptor (20 μM in table, 200 μM in methods), also measured at pH 7.5
Excerpt: steady-state kinetics, spectrophotometric ferrocenium reduction on recGcGDH (recombinant Glomerella cingulata FAD-dependent glucose dehydrogenase)

In the case of `Cc1cc2nc3c(=O)[nH]c(=O)nc-3n(C[C@H](O)[C@H](O)[C@H](O)COP(=O)(O)OP(=O)(O)OC[C@H]3O[C@@H](n4cnc5c(N)ncnc54)[C@H](O)[C@@H]3O)c2cc1C` [FAD], the “UV/Vis absorption spectrum of purified enzyme, oxidized and glucose-reduced” value [1] is reported as “typical flavoprotein spectrum shows the same characteristics as the spectrum of wild-type GcGDH”.

B1: recGcGDH (recombinant Glomerella cingulata FAD-dependent glucose dehydrogenase) (Colletotrichum gloeosporioides) (protein)
chain: T1 sequence (G8E4B5 17-600)
notes: native stop codon in primer, no tag; glycosylated, 88-131 kDa on SDS-PAGE, 67 kDa deglycosylated
B1 gave a Km [2] of 10.1 ± 0.4 mM, a kcat [2] of 179 ± 4 s⁻¹ and a kcat/Km [2] of 17700 M⁻¹ s⁻¹.
